Data on 1 substance can be found in paper PMC3158780.

In the assay the target is insoluble type I collagen (UniProt P02453). Briefly: co-sedimentation; batch binding to 5 mg insoluble substrate; protein 15 µg/ml in 80 µl buffer A (50 mM Tris-HCl, 10 mM CaCl2, 3 M NaCl, pH 8.0), 0°C, 60 min; supernatant after centrifugation on SDS-PAGE.

Regarding “isolated CTE domain of SptA (CTE*) (domain or fragment)”, the percent bound was found to be 50%.
